{
  "source": "patent US8624002B2",
  "about": "“Prostaglandin E2 binding proteins and uses thereof” (AbbVie, Inc., priority 2008, dated 2014)",
  "molecules": {"B1": {"name": "Hu2B5.9: humanized 2B5-8.0; VH SEQ ID NO 76, VL SEQ ID NO 77 (antibody, V domains shown)", "VH": "EVQLVQSGAEVKKPGASVKVSCKASGYTFTKYWLGWVRQAPGQGLEWMGDIYPGYDYTHYNEKFKDRVTMTTDTSTSTAYMELRSLRSDDTAVYYCARSDGSSTYWGQGTLVTVSS", "VL": "DIVMTQTPLSLPVTPGEPASISCTSSQNIVHSNGNTYLEWYLQKPGQSPQLLIYKVSNRFSGVPDRFSGSGSGTDFTLKISRVEAEDVGVYYCFQVSHVPYTFGGGTKVEIKR"}},
  "key": {"^3H-PGE2 ELISA (binding)": {"test": "^3H-PGE2 ELISA (binding)", "procedure": "Alternatively, prostaglandin binding was determined using a ^3H-PGE2 ELISA. Plates were coated at 50 μL/well with 5 μg/ml of goat anti-human IgG (Fc) (Thermo Scientific # 31170, Hudson, N.H.) or goat anti-mouse IgG (Fc) (Thermo Scientific # 31125, Hudson, N.H.) in PBS and incubated overnight at 4° C. The following day, plates were flicked and blotted dry. Plates were blocked with 200 μL/well of Superblock (Thermo Scientific # 37515, Hudson, N.H.) for 1 hour at room temperature. Plates were flicked and blotted dry. Monoclonal antibodies were diluted to 0.04 μg/ml in phosphate buffer solution with Tween 20 (PBST) (Abbott Bioresearch Center, Worcester, Mass.) and 10% Superblock and 50 μL of each antibody was added to each well of the pre-blocked ELISA plate at 2 ng/well and incubated for 1 hour at room temperature. Wells were washed 3 times with PBS+0.1% Tween-20. A serial 3-fold titration of ^3H-PGE2 (Perkin Elmer # NET-428, Waltham, Mass.) was prepared in PBST/10% Superblock. Fifty microliters of the ^3H-PGE2 solution was added to each well of the plate and incubated for 1 hour at room temperature. […] Plates were read using a TopCount reader (Perkin Elmer, Waltham, Mass.) with a 5 minute count delay. An EC50 number was determined using GraphPad Prism 5 (GraphPad Software, La Jolla, Calif.)."}, "[1]": {"test": "Accelerated stability screening monitored by SEC", "type": "physicochemical", "details": "for Aggregate (%) / Fragment (%) / Monomer (%): SEC", "procedure": "Size exclusion chromatography was used to separate proteins based on size. Proteins are carried in an aqueous mobile phase and through a porous stationary phase resin packed in a column. The retention time in the column is a function of the hydrodynamic size of the protein and the size of the pores in the packed resin bed. Smaller molecules can penetrate into smaller pores in the resin and are retained longer than larger molecules. Upon elution from the column the proteins are detected by UV absorbance. The SEC method used a TSK gel guard (TOSOH Biosciences, Montgomeryville, Pa., cat. no. 08543) and a TSK gel G3000SWxL (TOSOH Biosciences, Montgomeryville, Pa., cat. no. 08541). The mobile phase was 100 mM Na2HPO4, 200 mM Na2SO4, pH 7.0. The flow rate was 0.3 mL/minute. Injection volume was 20 μL of 1 mg/mL sample. The column temperature was room temperature. The autosampler temperature was 2-8° C. The total run time was 50 minutes. The detection was based on UV absorbance at 214 nm wavelength, with band width set at 8 nm, using reference wavelength at 360 nm with band width 100 nm.\n(§1) The stability of a series of clones (i.e., anti-PGE2 antibodies) of the parent anti-PGE2 antibody was assessed by using intrinsic thermodynamic clone stability determination using DSC (0.79 mg/mL clone concentration, formulated at pH 6 in a 10 mM citrate, 10 mM phosphate buffer) and by accelerated stability screening (0.79 mg/mL clone concentration, formulated at pH 6 in a 10 mM citrate, 10 mM phosphate buffer, for 7 days at 50° C.) where clone stability was monitored with SEC (Table 15)."}, "[2]": {"test": "Capillary zone electrophoresis", "type": "physicochemical", "details": "running buffer pH 5.5; compared with Hu2B5.2, Hu2B5.4, Hu2B5.6, Hu2B5.8", "from_the_text": "Capillary zone electrophoresis is a capillary electrophoresis method in which the capillary is filled with buffer and the separation mechanism is based on differences in electrophoretic mobility of the analyte through the buffer. The electrophoretic mobility of a molecule is related to the charge-to-size ratio. A Beckman-Coulter ProteomeLab PA 800 (Beckman Coulter, Fullerton, Calif.) was used for the CZE analysis. A neutral capillary (eCAP neutral, 56 cm total length, 50 μm I. D. Beckman-Coulter, P/N 477441, Fullerton, Calif.) was used. The method used a 30.2 cm capillary with a detection window 20.2 cm from the sample introduction inlet. The running buffer was 100 mM EACA (6-Aminocaproic acid, Sigma A7824-100 G, St. Louis, Mo.) with 0.1% MC (from 1% Methylcellulose solution, Convergent Bioscience, cat# 101876, Toronto, ON, Canada), pH 5.5."}, "[3]": {"tested_on": "PGE2 induced Ca++ influx in HEK293 Gα16 cells stably transfected with human EP4 receptor", "test": "EP4 bioassay: PGE2 induced Ca++ flux (FLIPR)", "type": "cell-based", "details": "PGE2 25 pm; read-out: IC50 (pM) @ PGE2 25 pm Cellular Potency in EP4 assay", "procedure": "The ability of anti-PGE2 antibody to inhibit cellular response of PGE2 in vitro was determined in a Ca^++ flux assay in HEK293 Gα16 cells (Abbott Bioresearch Center, Worcester, Mass.) stably transfected with human EP4 receptor. In brief, an expression plasmid encoding one of the four human PGE2 receptors, EP4, and an expression plasmid encoding Gα16, were co-transfected into human embryonic kidney cell line 293 cells (ATCC# CRL1573, Manassas, Va.). The stable clones co-expressing both human EP4 and Gα16 protein were selected using standard methods (Joseph Sambrook and David W. Russell. Molecular Cloning: A Laboratory Manual Publisher. Published by Cold Spring Harbor Laboratory Press, 2001) and used for the EP4 bioassay. The HEK293 Gα16 cells were plated in black/clear poly-D-lysine plates (Corning #3667, Corning, N.Y.) and incubated with a Ca^++-sensitive dye (Molecular Devices, Sunnyvale, Calif.) for 90 minutes. Stock PGE2 (in 200 proof ethanol) was diluted with FLIPR buffer [containing 1×HBSS (Invitrogen Carlsbad, Calif.), 20 mM HEPES (Invitrogen Carlsbad, Calif.), 0.1% BSA (Sigma, St. Louis, Mo.) and 2.5 mM Probenecid (Sigma, St. Louis, Mo.)]. Anti-PGE2 antibodies or isotype matched control antibodies were also pre-diluted in FLIPR buffer. 25 μl of PGE2 or pre-incubated PGE2/antibody mixture was added to the wells pre-plated with cells. The dose response of PGE2 was determined on a serial titration of PGE2 and using FLIPR1 or Tetra (Molecular Devices, Sunnyvale, Calif.) and EC50 was determined using GraphPad Prism 5 (GraphPad Software, La Jolla, Calif.). […] Ca^++ flux was monitored using FLIPR1 and data was analyzed using GraphPad Prism 5 (GraphPad Software, La Jolla, Calif.)."}, "[4]": {"test": "Intrinsic thermodynamic stability by DSC", "type": "physicochemical", "procedure": "The thermal stability of the anti-PGE2 antibodies was assessed using a DSC instrument. The DSC instrument used was an automated VP-DSC equipment with Capillary Cell (Microcal, GE Healthcare Ltd./Microcal, Buckinghamshire, UK). Unfolding of molecules was studied applying a 1° C./minute scan rate over a 25° C.-95° C. temperature range for samples at 1 mg/mL. Additional measurement parameters applied were a fitting period of 16 seconds, a pre-scan wait time of 10 minutes, and measurements were performed in none-feedback mode. Per individual measurement, 420 μL of sample/blank were filled into the DSC measurement sample holder, with a plate fill scheme as provided below. The thermograms obtained were fitted to a non two state model to obtain the midpoint temperatures and enthalpies of the different transitions.\nas §1"}},
  "data": [
    {"molecule": "B1", "values": [
      {"measurement": "IC50", "setting": "^3H-PGE2 ELISA (binding)", "value": 0.704, "unit": "nM"},
      {"measurement": "monomer levels after 7 days accelerated stability screening", "setting": "[1]; 7 days at 50° C.", "value": "highest monomer levels"},
      {"measurement": "Aggregate (%)", "setting": "[1]; 7 days storage at 50° C.", "value": 1.9559, "unit": "%"},
      {"measurement": "Fragment (%)", "setting": "[1]; 7 days storage at 50° C.", "value": 3.4127, "unit": "%"},
      {"measurement": "Monomer (%)", "setting": "[1]; 7 days storage at 50° C.", "value": 94.6313, "unit": "%"},
      {"measurement": "Fragment (%)", "setting": "[1]; start of stability study", "value": 2.541, "unit": "%"},
      {"measurement": "Monomer (%)", "setting": "[1]; start of stability study", "value": 95.6031, "unit": "%"},
      {"measurement": "Aggregate (%)", "setting": "[1]; start of stability study, 0.79 mg/mL, pH 6", "value": 1.8559, "unit": "%"},
      {"measurement": "migration in capillary zone electrophoresis", "setting": "[2]", "value": "migrated more basic"},
      {"measurement": "IC50", "setting": "[3]", "value": 125, "unit": "pM"},
      {"measurement": "Tm1 (° C.)", "setting": "[4]; 0.79 mg/mL, pH 6, 10 mM citrate, 10 mM phosphate", "value": 73.235, "unit": "°C"},
      {"measurement": "Tm2 (° C.)", "setting": "[4]; same buffer", "value": 75.965, "unit": "°C"},
      {"measurement": "Tm3 (° C.)", "setting": "[4]; same buffer", "value": 83.04, "unit": "°C"}
    ]}
  ]
}
